Results taken from PMC8951219.

Test system: MSA-R2c (p57, major soluble antigen, IPT-domain construct) (Renibacterium salmoninarum)
Experiment: plate binding assay with immobilized protein, bound aptamer quantified by qPCR
Details: 20 mM Tris-HCl pH 7.4, room temperature, 1 h; wells coated with 50 uL of 2.5 uM protein, 1% BSA block; aptamer 0.0205-41 nM, heated at 95 C for 5 min; no added …

“ATGATACGGCGACCACCTAACCATTTTCACTGTTTGTTTAATATATATAGTTTTATGGTATAGCGTCGTGTAGGGAAAGA [Aptamer-4]” gave a Kd of 3 nM.
